Experimental findings from the Immune Epitope Database (IEDB) are described below.

In assay [1] the target is HLA-A*02:01. Nature of the assay: IEDB peptide-MHC binding, purified MHC/competitive/radioactivity; filed as Kd, often an IC50 or EC50 that approximates it; ≥ and ≤ were set here for values at or beyond the usual limits of such assays. The settings on record: source organism: Lassa virus Josiah.
Assay [2] has as its target HLA-B*44:02. Described as above.
Assay [3] concerns the target HLA-B*40:01. The assay is described as above.
In assay [4] the target is HLA-B*18:01. The description is as above.
In assay [5] the target is HLA-B*44:03. The description is as above.
The target of assay [6] is HLA-B*45:01. The description is as above.
The target in assay [7] is HLA-B*40:02. The assay is described as above.
Assay [8] addresses HLA-B*08:01. Description: IEDB peptide-MHC binding, purified MHC/direct/fluorescence; filed as Kd, often an IC50 or EC50 that approximates it; ≥ and ≤ were set here for values at or beyond the usual limits of such assays. The settings on record: source organism: Salmonella enterica subsp. enterica serovar Typhimurium str. LT2.
The target in assay [9] is HLA-A*02:06. Description: IEDB peptide-MHC binding, purified MHC/competitive/radioactivity; filed as Kd, often an IC50 or EC50 that approximates it; ≥ and ≤ were set here for values at or beyond the usual limits of such assays. The settings on record: source organism: Lassa virus Josiah.
The target in assay [10] is HLA-A*02:03. Described as above. Conditions: source organism: Lassa virus Josiah.
Assay [11] has as its target HLA-A*02:02. The assay is described as above. Conditions: source organism: Lassa virus Josiah.
Assay [12] addresses HLA-A*68:02. The assay is described as above.
In assay [13] the target is HLA-A*26:01. The description is as above. Conditions: source organism: Dengue virus 4 Philippines/H241/1956.
[14] abbreviates: source organism: SARS coronavirus Tor2.
Where [15] appears, read: source organism: Mammarenavirus machupoense.
Where [16] appears, read: source organism: Mammarenavirus guanaritoense.
Setting [17] is: source organism: Mammarenavirus lassaense.
The mark [18] stands for this setting: source organism: Mammarenavirus juninense.
The mark [19] stands for this setting: source organism: Lymphocytic choriomeningitis virus (strain Armstrong).

Where only a bound is given, the exact number is not on record here.

For the sequence IALSVLAVL, in assay [1], the Kd is 1920 nM.
Consider VESSSKLWA, for which the Kd in assay [2] (setting [14]) was 3340 nM; in [3] (setting [14]), no less than 42200 nM; in [4] (setting [14]), 1250 nM; in assay [5] (setting [14]) it was 1600 nM; in assay [6] (setting [14]) it was 267 nM; in assay [7] (setting [14]) it was 3160 nM.
For the sequence TEFQSVTFTM, the Kd in [2] (setting [15]) came out at 1160 nM; in assay [3] (setting [15]) it was 1570 nM; in [4] (setting [15]), 32.8 nM; in assay [5] (setting [15]) it was 636 nM; in assay [6] (setting [15]), 13600 nM; in assay [7] (setting [15]), 126 nM.
Sequence TMRLRSEVL displayed a Kd in assay [8] of 22 nM.
With KETSYTTTI, the Kd is 90.8 nM in [2] (setting [14]); 20.7 nM in assay [3] (setting [14]); no less than 77500 nM in assay [4] (setting [14]); 125 nM in assay [5] (setting [14]); 183 nM in assay [6] (setting [14]); 59.6 nM in assay [7] (setting [14]).
With PEFDWILGWT, the Kd in assay [2] (setting [16]) is no less than 70200 nM; in [3] (setting [16]) it was no less than 69500 nM; in assay [4] (setting [16]) it was no less than 70400 nM; in assay [5] (setting [16]) it was no less than 28100 nM; in [6] (setting [16]), no less than 70000 nM; in [7] (setting [16]) it was no less than 23600 nM.
With GEPKMTKAL, the Kd in assay [2] (setting [17]) was no less than 20300 nM; in [3] (setting [17]) it was 1770 nM; in assay [4] (setting [17]) it was no less than 77500 nM; in assay [5] (setting [17]) it was no less than 49900 nM; in assay [6] (setting [17]) it was no less than 68100 nM; in [7] (setting [17]) it was 178 nM.
As to YDFVLVGPC, the Kd in [2] (setting [17]) was 1000 nM; in assay [3] (setting [17]), 3340 nM; in assay [4] (setting [17]), no less than 24000 nM; in assay [5] (setting [17]), 6830 nM; in [6] (setting [17]), 7220 nM; in assay [7] (setting [17]), 836 nM.
As to EDIDSVETL, the Kd in assay [2] (setting [18]) is 12300 nM; in [3] (setting [18]), 1880 nM; in [4] (setting [18]), 14400 nM; in assay [5] (setting [18]), no less than 28300 nM; in [6] (setting [18]) it was no less than 24300 nM; in [7] (setting [18]) it was 1250 nM.
On to NECAQVLSEM, for which the Kd in [2] (setting [14]) came out at 253 nM; in [3] (setting [14]) it was 801 nM; in assay [4] (setting [14]), 177 nM; in assay [5] (setting [14]) it was 121 nM; in assay [6] (setting [14]), 4950 nM; in [7] (setting [14]), 12200 nM.
In the case of LTYSQLMTL, the Kd came to 227 nM in assay [1]; 57.8 nM in assay [9]; 7.81 nM in assay [10]; 11.1 nM in [11]; 103 nM in [12] (source organism: Lassa virus Josiah).
Turning to TTAKEVALL, the Kd came out at 1900 nM in assay [13] and 21.8 nM in assay [12] (source organism: Dengue virus 4 Philippines/H241/1956).
As to IEVALRTLLL, the Kd in [2] (setting [19]) was 9310 nM; in assay [3] (setting [19]), 1290 nM; in [4] (setting [19]), 1710 nM; in assay [5] (setting [19]) it was 1830 nM; in assay [6] (setting [19]), no less than 70000 nM; in [7] (setting [19]), 24.1 nM.
For the sequence QEAYYRARA, the equilibrium dissociation constant (Kd) in assay [2] (setting [14]) is 6160 nM; in assay [3] (setting [14]), 19900 nM; in assay [4] (setting [14]), no less than 50800 nM; in assay [5] (setting [14]) it was 7320 nM; in [6] (setting [14]), 15.1 nM; in assay [7] (setting [14]), 1930 nM.
With QESLTTTSTA, the Kd in [2] (setting [14]) is 7110 nM; in [3] (setting [14]), 10200 nM; in [4] (setting [14]), no less than 70500 nM; in assay [5] (setting [14]), 682 nM; in [6] (setting [14]), 39.6 nM; in assay [7] (setting [14]) it was 146 nM.
For the sequence LEQWNLVIGF, the Kd turned out to be 16.1 nM in assay [2] (setting [14]); 3940 nM in [3] (setting [14]); 155 nM in [4] (setting [14]); 48.8 nM in assay [5] (setting [14]); 3980 nM in assay [6] (setting [14]); 565 nM in [7] (setting [14]).
